# Laboratory results published in publication doi:10.1101/2025.06.10.658980, “Structures reveal how the Cas1-2/3 integrase captures, delivers, and integrates foreign DNA into CRISPR loci” (bioRxiv, 2025).
# B1: Cas2/3 fusion protein (type I-F, Pseudomonas aeruginosa PA14), untagged (enzyme)
# chain: MNILLVSQCEKRALSETRRILDQFAERRGERTWQTPITQAGLDTLRRLLKKSARRNTAVACHWIRGRDHSELLWIVGDASRFNAQGAVPTNRTCRDILRKEDENDWHSAEDIRLLTVMAALFHDIGKASQAFQAKLRNRGKPMADAYRHEWVSLRLFEAFVGPGSSDEDWLRRLADKRETGDAWLSQLARDDRQSAPPGPFQKSRLPPLAQAVGWLIVSHHRLPNGDHRGSASLARLPAPIQSQWCGARDADAKEKAACWQFPHGLPFASAHWRARTALCAQSMLERPGLLARGPALLHDSYVMHVSRLILMLADHHYSSLPADSRLGDPNFPLHANTDRDSGKLKQRLDEHLLGVALHSRKLAGTLPRLERQLPRLARHKGFTRRVEQPRFRWQDKAYDCAMACREQAMEHGFFGLNLASTGCGKTLANGRILYALADPQRGARFSIALGLRSLTLQTGQAYRERLGLGDDDLAILVGGSAARELFEKQQERLERSGSESAQELLAENSHVHFAGTLEDGPLREWLGRNSAGNRLLQAPILACTIDHLMPASESLRGGHQIAPLLRLMTSDLVLDEVDDFDIDDLPALSRLVHWAGLFGSRVLLSSATLPPALVQGLFEAYRSGREIFQRHRGAPGRATEIRCAWFDEFSSQSSAHGAVTSFSEAHATFVAQRLAKLEQLPPRRQAQLCTVHAAGEARPALCRELAGQMNTWMADLHRCHHTEHQGRRISFGLLRLANIEPLIELAQAILAQGAPEGLHVHLCVYHSRHPLLVRSAIERQLDELLKRSDDDAAALFARPTLAKALQASTERDHLFVVLASPVAEVGRDHDYDWAIVEPSSMRSIIQLAGRIRRHRSGFSGEANLYLLSRNIRSLEGQNPAFQRPGFETPDFPLDSHDLHDLLDPALLARIDASPRIVEPFPLFPRSRLVDLEHRRLRALMLADDPPSSLLGVPLWWQTPASLSGALQTSQPFRAGAKERCYALLPDEDDEERLHFSRYEEGTWSNQDNLLRNLDLTYGPRIQTWGTVNYREELVAMAGREDLDLRQCAMRYGEVRLRENTQGWSYHPYLGFKKYN
# notes: Two Cas2/3 subunits stand in the Cas1-2/3 heterohexamer, joined through the Cas2 homodimer; also called Cas3; Cas3a; source: E. coli BL21(DE3), co-expressed with StrepII-Cas1 from a single plasmid; in lysate, and purified with Cas1 (StrepTrap HP, Superdex 200)
# B2: Cas1 (type I-F, Pseudomonas aeruginosa PA14), StrepII-tagged (enzyme)
# chain: MDDISPSELKTILHSKRANLYYLQHCRVLVNGGRVEYVTDEGRHSHYWNIPIANTTSLLLGTGTSITQAAMRELARAGVLVGFCGGGGTPLFSANEVDVEVSWLTPQSEYRPTEYLQRWVGFWFDEEKRLVAARHFQRARLERIRHSWLEDRVLRDAGFAVDATALAVAVEDSARALEQAPNHEHLLTEEARLSKRLFKLAAQATRYGEFVRAKRGSGGDPANRFLDHGNYLAYGLAATATWVLGIPHGLAVLHGKTRRGGLVFDVADLIKDSLILPQAFLSAMRGDEEQDFRQACLDNLSRAQALDFMIDTLKDVAQRSTVSA
# notes: Four Cas1 subunits (two homodimers) stand in the Cas1-2/3 heterohexamer; also called StrepII-tagged Cas1; Cas1a; source: E. coli BL21(DE3), co-expressed with Cas2/3 from a single plasmid; in lysate, and purified (StrepTrap HP, Superdex 200); not shown: StrepII, N-terminal, kept
# Legend:
# [1] = biological target: the molecule itself; assay: cryo-EM structure; Cas1-2/3 capture complex without nucleic acid, 12.8 uM, 3.3 Å
# [2] = biological target: B2; assay: SEC; affinity-purified Cas1-2/3 on Superdex 200 in 10 mM HEPES pH 7.5, 500 mM potassium glutamate, 10% glycerol; single peak, estimated ~380 kDa; details: both partners purified
Binder,stoichiometry N [1],stoichiometry N [2]
B1,2,2 Cas1 per Cas2/3 (4:2)
B2,2,–
